Results: patent publication US20190361012A1 (published 2019)

Columns and labels:
[1] = molecular target: FBA6 protein expressed and purified from E. coli (Arabidopsis) (UniProt Q9SJQ9); experiment: microscale thermophoresis (MST), FBA6 purified from E. coli
[2] = molecular target: TIA1 protein (recombinant, purchased from Origene) (human) (UniProt P31483); experiment: MST self-assembly, labelled TIA1 titrated with non-labeled TIA1, without 2′,3′-cAMP
[3] = molecular target: TIA1 protein (recombinant, purchased from Origene) (human) (UniProt P31483); experiment: MST self-assembly, labelled TIA1 titrated with non-labeled TIA1, in the presence of 500 µM 2′,3′-cAMP
[4] = molecular target: the molecule itself; experiment: MST self-assembly, labelled Rbp47b titrated with non-labeled Rbp47b, without 2′,3′-cAMP
Method: (§1) MST measurements were performed using a Monolith NT.115 instrument (NanoTemper, München, Germany). Capillaries were loaded into the instrument as sets of 13-16 point ligand titrations. […] Excitation was optimized by varying the LED power to yield emission intensities above 200 AU, corresponding to 10-50 nM labeled protein. Monolith power was set to 60%. Ligands [2′,3′-cAMP (Sigma A9376)] and [3′,5′-cAMP (Sigma A6885)] were dissolved in PBS. 0.5% Tween and premium coated capillaries were used to prevent sticking. […] MO Affinity Analysis software was used to analyze (Kd calculation) and visualize the data. Presented data are from 2-3 technical replicates.

[5] = molecular target: the molecule itself; experiment: MST self-assembly, labelled Rbp47b titrated with non-labeled Rbp47b, in the presence of 50 µM 2′,3′-cAMP
Method: as §1

Sequence of FBA6 protein expressed and purified from E. coli (Arabidopsis) (Q9SJQ9 whole entry): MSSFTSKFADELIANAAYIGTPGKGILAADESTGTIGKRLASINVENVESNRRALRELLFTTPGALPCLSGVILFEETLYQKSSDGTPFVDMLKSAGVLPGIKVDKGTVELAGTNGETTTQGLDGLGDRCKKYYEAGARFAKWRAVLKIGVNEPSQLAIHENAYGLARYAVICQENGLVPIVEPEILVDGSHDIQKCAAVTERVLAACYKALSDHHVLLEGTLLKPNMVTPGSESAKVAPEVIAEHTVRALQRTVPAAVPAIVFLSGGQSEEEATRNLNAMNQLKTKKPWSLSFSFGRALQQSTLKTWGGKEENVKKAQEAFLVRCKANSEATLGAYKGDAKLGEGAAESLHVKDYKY

L-Gly-L-Pro (peptide)
Kd [1]: 200 nM

TIA1 protein (recombinant, purchased from Origene) (from UniProt P31483 1-386)
Kd [2]: 36.3 nM
Kd [3]: 20.6 nM

B1: His6-Rbp47b (other, Arabidopsis)
chain: HHHHHHMQTTNGSDSTLATSGATPPNQQTPPPPQQWQQQQQQQQQWMAAMQYPPAAAMMMMQQQQMLMYPHQYVPYNQGPYQQHHPQLHQYGSYQQHQHQQHKAIDRGSGDDVKTLWVGDLLHWMDETYLHSCFSHTGEVSSVKVIRNKLTSQSEGYGFVEFLSRAAAEEVLQNYSGSVMPNSDQPFRINWASFSTGEKRAVENGPDLSVFVGDLSPDVTDVLLHETFSDRYPSVKSAKVVIDSNTGRSKGYGFVRFGDENERSRALTEMNGAYCSNRQMRVGIATPKRAIANQQQHSSQAVILAGGHGSNGSMGYGSQSDGESTNATIFVGGIDPDVIDEDLRQPFSQFGEVVSVKIPVGKGCGFVQFADRKSAEDAIESLNGTVIGKNTVRLSWGRSPNKQWRGDSGQQWNGGYSRGHGYNNGGGYANHHDSNNYHGEN
modifications: the labelled partner carries RED-NHS (amine reactive) dye; the titrated partner is non-labeled
notes: Cloned as His6-Rbp47b-GFP in E. coli; The fraction that had spontaneously lost GFP (His6-Rbp47b) was used for MST; In the self-assembly assay labelled Rbp47b was titrated with non-labeled Rbp47b; also called Rb47b
Kd [4]: 128 nM
Kd [5]: 8.9 nM
